Measured values from article PMC11401214, “A new generation of nanobody research tools using improved mass spectrometry-based discovery methods” (The Journal of Biological Chemistry, 2024).

Molecular target: GFP [GFP: P42212]
Experiment: SPR; GFP immobilised by EDC/NHS coupling (ProteOn XPR36, GLC chip, 5 ug/ml in 10 mM sodium acetate pH 5.0; or Biacore 8K, CM5 chip, 5 ug/ml, pH 5.5); nanobody as analyte; 20 mM Na-Hepes pH 7.4, 150 mM NaCl, 0.05% Tween 20; Langmuir binding model

Binder | Kd [nM]
LaG94-18 (VHH) VHH: QVQLVESGGGLVQAGGSLRLSCVASGRTFSTSAMAWWRQAPGKEREFVAAISWNVGTTYYPDSVKGRFTISRDKAQNAVYLQMNSLKPEDTAVYYCAARVTGYFGDQVRRADDYRYWGQGTQVTVS | 0.92
LaG94-3 (VHH) VHH: QVQLVESGGGLVQAGGSLRLSCTASGGTVSSSGMGWFRQSSGNDRDFVAFITPTGPTTWYEESVNSRFTVSRDNAKNTIYLQMKSLRPEDTAIYYCAAGNIGRDSRTYPYWGQGTQVTVS | 0.13
LaG94-12 (VHH) VHH: QVQLVESGGRLVQAGGSLRLSCAVSGGTFSLYSLGWFRQAPGKEREFVAAFSREDGTTSFADSVKGRFTMFRDGTKNTVYLQMNSLKQEDTAVYSCAATVRAQPSYSWSSYVYRGLGTQVTVS | 0.3
LaG94-8 (VHH) VHH: QVQLVESGGGLVQAGGSLRLSCAASGRTFMNYAMGWFRQAPGKGREFVASISWTGETSTYADFVKGRFTISRDNAKNTVYLQMDSLKPEDTAVYRCAAKRATDFDDTVREAAEADYWGQGTQVTVS | 0.21
LaG94-2 (VHH) VHH: DVQLVESGGALVQAGGSLRLSCEFSGGTFNLYGIGWFRQAPEQDHEFVAGVSRYGSTYESVSVKGRFTSSRDNAKNSAYLEMNTLKPEDTGVYTCAATVREQVPTNFGSYIYRGQGTQVTVS | 27
LaG94-4 (VHH) VHH: DVQLVESGGGLVQAGGSLRLSCAASGDTSSIHFWEWYRQAPGKQRELVATANNGDFTHLQDSVKGRFTISKDNAKSTVYLQMNDLKPEDTAVYLCYARSYSNSNFWGQGTQVTVS | 3.7

These reach a lower Kd. Values come first.

Kd [nM] | Binder
< 0.00014 | LaG94-15 (VHH) VHH: QVQLVESGGGAVQSGGSLSLSCAASGGIRSISAMTWFRQAPGREREFVAAVTRTLGTTYYTDSVKGRFTISRDSVKGTLYLRMNNMRPEDAAVYYCAARTRGFSTKVALETTDGMDYWGKGTLVTVS
0.009 | LaG94-10 (VHH) VHH: QVQLVESGGGLVQAGGSLRLSCAASGLTLRVYDVTWFRQAPGKEREFVGTVNRNGVVTDYADSVKGRFTISRDNPKNTIYLQMNSLKPEDTAVYYCAAKTRPKLSTLWDEYIYRGQGTQVTVS
0.016 | LaG94-1 (VHH) VHH: QVQLVESGGGLVQTGDSLRLSCRASGLTLSVYSTGWFRQAPGKEHENVAWISRSGDETYYEDSVKGRFTISRDNAKNTVYLQMNDLKPEDMARYYCAASNRGRTTAWNLYIYRGQGTQVTVS
0.021 | LaG94-9 (VHH) VHH: QVQLVESGGGLVQPGGSLRLSCAASGGTFDTHTMGWFRQAPGKQREFVSAIRLHGVGTYYADSVKGRFTISRENAKNTVHLQMNNLKPEDTAVYYCAADRNWSRATEKEEYDYWGQGTQVTVS
< 0.00089 | LaG94-5 (VHH) VHH: QVQLAESGGGLVQAGGSLRLSCAASGRTFAMGWFRRAPGKEREFVASMSRSGLDTHYADSVKGRFTISRDNALNTVYLQTDSLKPEDTGDYFCAVGLRYWSLSGDYIRREKYDVWGQGTQVTVS
0.083 | LaG94-6 (VHH) VHH: QVQLVESGGGAVQAGGSLRLSCAASGLTFSLYTMGWFRQAPEKEPEFVAYISKSGDTTTYADSVKGRFTIGRDNAKSTVYLQMNSLKSEDTAVYYCAASIKREITPNSIYRGQGTQVTVS
